This is an account of results in FireProtDB (doi:10.1021/bi00485a005).

Sequences and labels used below:
B1: Guanyl-specific ribonuclease T1, P00651 (parent)
chain: MMYSKLLTLTTLLLPTALALPSLVERACDYTCGSNCYSSSDVSTAQAAGYQLHEDGETVGSNSYPHKYNNYEGFDFSVSSPYYEWPILSSGDVYSGGSPGADRVVFNENNQLAGVITHTGASGNNFVECT

Variants of B1 are the subject of one data set. The conditions noted are these: Aspergillus oryzae (strain ATCC 42149 / RIB 40); pH 6.01; 25 °C; Urea; Fluorescence; MES 30 mM; NaCl 0.2 M; structure 1RN1; whole UniProt chain shown.
Consider E84A, for which the “ddG of mutation (higher = less stable)” value came to 0.64 kcal/mol, the denaturant m value was 1.34 kcal/mol/M, the “denaturant midpoint (higher = more stable)” value was found to be 5.67 M and the unfolding free energy was determined as 7.6 kcal/mol.

Staying with this data set, now noted: Aspergillus oryzae (strain ATCC 42149 / RIB 40); pH 8.01; 25 °C; Urea; Fluorescence; HEPPSO 30 mM; NaCl 0.2 mM; structure 1RN1; whole UniProt chain shown.
In the case of E84A, the “ddG of mutation (higher = less stable)” value was -0.71 kcal/mol, the denaturant m value amounted to 1.36 kcal/mol/M, the “denaturant midpoint (higher = more stable)” value is 4.89 M and the unfolding free energy worked out at 6.63 kcal/mol.
